Experimental data as given in patent publication US20250262210A1 (TRUSTEES OF COLUMBIA UNIVERSITY IN THE CITY OF NEW YORK, published 2025).

What was measured:
Test in all cases: IP/MS, LZTR1 wild type-FLAG, U87
[1] = target: DMXL2 (human, UniProt Q8TDJ6 1-3036, limits assumed)
Method in brief: (§1)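 Read-out: spectral counts from LC-MS/MS (Orbitrap Fusion) after MaxQuant identification. Variable modifications were Met oxidation, protein N-terminal acetylation and N/Q deamidation.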

[2] = target: T1, SMPD4 (human, UniProt Q9NXE4 1-866, limits assumed)
T1 sequence (looked up): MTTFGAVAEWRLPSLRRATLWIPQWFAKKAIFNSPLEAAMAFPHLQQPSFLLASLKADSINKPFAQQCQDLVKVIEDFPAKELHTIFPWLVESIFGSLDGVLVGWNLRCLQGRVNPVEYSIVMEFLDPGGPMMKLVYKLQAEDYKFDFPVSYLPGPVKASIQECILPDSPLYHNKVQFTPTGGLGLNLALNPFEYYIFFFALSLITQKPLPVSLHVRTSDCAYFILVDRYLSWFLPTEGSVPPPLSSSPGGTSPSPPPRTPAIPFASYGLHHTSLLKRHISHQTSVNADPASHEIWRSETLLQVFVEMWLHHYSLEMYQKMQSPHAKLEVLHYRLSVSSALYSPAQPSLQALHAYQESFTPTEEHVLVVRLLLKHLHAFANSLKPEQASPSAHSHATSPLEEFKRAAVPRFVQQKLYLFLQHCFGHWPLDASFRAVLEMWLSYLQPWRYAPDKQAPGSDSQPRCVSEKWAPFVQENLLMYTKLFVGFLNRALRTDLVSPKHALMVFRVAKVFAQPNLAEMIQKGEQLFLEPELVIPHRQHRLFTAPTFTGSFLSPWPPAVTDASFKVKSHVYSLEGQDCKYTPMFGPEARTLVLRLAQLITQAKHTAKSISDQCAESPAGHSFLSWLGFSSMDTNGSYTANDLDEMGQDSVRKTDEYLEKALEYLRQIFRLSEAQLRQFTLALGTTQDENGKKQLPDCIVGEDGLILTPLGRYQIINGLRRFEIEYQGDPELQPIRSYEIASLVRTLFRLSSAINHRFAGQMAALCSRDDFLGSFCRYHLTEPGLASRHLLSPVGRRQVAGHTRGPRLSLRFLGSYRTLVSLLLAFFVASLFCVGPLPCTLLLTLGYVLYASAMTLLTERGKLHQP
Method in brief: as §1

[3] = target: SPG11 (human, UniProt Q96JI7 1-2443, limits assumed)
Method in brief: as §1

[4] = target: MAP4K4 (human, UniProt O95819 2-1239, limits assumed)
MAP4K4, sequence (O95819 2-1239 limits assumed): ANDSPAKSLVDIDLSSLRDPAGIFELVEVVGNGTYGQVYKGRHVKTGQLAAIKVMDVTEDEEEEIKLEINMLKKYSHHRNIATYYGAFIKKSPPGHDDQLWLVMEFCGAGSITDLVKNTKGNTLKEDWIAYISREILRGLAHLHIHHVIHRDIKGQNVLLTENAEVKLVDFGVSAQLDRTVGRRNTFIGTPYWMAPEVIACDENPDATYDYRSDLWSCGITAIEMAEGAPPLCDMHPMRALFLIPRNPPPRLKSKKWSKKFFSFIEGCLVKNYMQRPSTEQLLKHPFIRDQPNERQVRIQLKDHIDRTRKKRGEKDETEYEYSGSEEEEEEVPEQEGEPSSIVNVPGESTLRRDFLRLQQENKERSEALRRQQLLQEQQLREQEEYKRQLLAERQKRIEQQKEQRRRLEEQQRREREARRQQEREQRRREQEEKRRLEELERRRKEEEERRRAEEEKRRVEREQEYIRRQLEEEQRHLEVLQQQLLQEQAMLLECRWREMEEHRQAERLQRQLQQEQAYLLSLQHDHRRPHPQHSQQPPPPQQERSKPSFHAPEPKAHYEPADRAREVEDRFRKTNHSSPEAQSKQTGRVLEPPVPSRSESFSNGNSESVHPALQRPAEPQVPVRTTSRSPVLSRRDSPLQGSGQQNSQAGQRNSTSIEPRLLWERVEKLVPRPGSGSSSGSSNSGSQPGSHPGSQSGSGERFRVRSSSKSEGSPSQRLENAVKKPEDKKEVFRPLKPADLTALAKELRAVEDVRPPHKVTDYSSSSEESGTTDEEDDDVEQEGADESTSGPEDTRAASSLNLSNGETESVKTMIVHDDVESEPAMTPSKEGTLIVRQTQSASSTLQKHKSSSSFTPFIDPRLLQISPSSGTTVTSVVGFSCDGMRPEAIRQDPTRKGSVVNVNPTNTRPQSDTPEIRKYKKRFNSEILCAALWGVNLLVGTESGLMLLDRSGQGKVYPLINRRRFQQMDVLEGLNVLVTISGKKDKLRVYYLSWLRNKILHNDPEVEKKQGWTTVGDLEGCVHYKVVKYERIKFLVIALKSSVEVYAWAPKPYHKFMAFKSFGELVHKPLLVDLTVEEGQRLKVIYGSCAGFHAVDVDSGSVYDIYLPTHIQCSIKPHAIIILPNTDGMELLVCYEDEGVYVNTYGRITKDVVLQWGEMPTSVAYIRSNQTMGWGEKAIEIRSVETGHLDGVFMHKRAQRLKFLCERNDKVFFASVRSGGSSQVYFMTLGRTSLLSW
Method in brief: as §1

[5] = target: TRRAP (human, UniProt Q9Y4A5 2-3859, limits assumed)
Method in brief: as §1

[6] = target: T2, PARP10 (human, UniProt Q53GL7 1-1025)
T2 sequence (looked up): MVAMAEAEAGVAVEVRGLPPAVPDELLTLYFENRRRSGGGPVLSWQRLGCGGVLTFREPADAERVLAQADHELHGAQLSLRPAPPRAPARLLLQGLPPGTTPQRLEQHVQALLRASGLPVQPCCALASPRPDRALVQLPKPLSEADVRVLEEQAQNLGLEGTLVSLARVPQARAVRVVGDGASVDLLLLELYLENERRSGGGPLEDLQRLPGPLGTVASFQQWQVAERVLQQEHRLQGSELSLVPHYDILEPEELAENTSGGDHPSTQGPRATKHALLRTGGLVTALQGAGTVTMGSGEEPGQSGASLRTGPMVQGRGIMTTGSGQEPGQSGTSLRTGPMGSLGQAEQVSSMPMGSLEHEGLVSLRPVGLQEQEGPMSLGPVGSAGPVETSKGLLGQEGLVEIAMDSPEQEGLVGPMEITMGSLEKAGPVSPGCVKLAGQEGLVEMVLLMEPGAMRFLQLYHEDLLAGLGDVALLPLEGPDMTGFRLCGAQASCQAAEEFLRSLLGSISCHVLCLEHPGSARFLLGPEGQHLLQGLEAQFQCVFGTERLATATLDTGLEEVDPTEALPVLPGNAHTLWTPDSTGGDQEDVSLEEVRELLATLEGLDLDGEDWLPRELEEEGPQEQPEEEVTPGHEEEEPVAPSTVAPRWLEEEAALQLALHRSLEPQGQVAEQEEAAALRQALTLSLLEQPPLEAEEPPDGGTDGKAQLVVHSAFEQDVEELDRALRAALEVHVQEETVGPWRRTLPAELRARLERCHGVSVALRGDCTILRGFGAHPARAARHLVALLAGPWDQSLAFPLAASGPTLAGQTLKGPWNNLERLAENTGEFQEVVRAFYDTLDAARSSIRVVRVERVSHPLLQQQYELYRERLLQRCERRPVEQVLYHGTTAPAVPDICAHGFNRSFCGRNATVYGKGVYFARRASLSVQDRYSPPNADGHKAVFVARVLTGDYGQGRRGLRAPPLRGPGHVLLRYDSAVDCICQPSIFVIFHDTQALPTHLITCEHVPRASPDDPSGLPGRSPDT
Method in brief: as §1

Measured: binding result

DMXL2, sequence (Q8TDJ6 whole entry, the tested form may be a part): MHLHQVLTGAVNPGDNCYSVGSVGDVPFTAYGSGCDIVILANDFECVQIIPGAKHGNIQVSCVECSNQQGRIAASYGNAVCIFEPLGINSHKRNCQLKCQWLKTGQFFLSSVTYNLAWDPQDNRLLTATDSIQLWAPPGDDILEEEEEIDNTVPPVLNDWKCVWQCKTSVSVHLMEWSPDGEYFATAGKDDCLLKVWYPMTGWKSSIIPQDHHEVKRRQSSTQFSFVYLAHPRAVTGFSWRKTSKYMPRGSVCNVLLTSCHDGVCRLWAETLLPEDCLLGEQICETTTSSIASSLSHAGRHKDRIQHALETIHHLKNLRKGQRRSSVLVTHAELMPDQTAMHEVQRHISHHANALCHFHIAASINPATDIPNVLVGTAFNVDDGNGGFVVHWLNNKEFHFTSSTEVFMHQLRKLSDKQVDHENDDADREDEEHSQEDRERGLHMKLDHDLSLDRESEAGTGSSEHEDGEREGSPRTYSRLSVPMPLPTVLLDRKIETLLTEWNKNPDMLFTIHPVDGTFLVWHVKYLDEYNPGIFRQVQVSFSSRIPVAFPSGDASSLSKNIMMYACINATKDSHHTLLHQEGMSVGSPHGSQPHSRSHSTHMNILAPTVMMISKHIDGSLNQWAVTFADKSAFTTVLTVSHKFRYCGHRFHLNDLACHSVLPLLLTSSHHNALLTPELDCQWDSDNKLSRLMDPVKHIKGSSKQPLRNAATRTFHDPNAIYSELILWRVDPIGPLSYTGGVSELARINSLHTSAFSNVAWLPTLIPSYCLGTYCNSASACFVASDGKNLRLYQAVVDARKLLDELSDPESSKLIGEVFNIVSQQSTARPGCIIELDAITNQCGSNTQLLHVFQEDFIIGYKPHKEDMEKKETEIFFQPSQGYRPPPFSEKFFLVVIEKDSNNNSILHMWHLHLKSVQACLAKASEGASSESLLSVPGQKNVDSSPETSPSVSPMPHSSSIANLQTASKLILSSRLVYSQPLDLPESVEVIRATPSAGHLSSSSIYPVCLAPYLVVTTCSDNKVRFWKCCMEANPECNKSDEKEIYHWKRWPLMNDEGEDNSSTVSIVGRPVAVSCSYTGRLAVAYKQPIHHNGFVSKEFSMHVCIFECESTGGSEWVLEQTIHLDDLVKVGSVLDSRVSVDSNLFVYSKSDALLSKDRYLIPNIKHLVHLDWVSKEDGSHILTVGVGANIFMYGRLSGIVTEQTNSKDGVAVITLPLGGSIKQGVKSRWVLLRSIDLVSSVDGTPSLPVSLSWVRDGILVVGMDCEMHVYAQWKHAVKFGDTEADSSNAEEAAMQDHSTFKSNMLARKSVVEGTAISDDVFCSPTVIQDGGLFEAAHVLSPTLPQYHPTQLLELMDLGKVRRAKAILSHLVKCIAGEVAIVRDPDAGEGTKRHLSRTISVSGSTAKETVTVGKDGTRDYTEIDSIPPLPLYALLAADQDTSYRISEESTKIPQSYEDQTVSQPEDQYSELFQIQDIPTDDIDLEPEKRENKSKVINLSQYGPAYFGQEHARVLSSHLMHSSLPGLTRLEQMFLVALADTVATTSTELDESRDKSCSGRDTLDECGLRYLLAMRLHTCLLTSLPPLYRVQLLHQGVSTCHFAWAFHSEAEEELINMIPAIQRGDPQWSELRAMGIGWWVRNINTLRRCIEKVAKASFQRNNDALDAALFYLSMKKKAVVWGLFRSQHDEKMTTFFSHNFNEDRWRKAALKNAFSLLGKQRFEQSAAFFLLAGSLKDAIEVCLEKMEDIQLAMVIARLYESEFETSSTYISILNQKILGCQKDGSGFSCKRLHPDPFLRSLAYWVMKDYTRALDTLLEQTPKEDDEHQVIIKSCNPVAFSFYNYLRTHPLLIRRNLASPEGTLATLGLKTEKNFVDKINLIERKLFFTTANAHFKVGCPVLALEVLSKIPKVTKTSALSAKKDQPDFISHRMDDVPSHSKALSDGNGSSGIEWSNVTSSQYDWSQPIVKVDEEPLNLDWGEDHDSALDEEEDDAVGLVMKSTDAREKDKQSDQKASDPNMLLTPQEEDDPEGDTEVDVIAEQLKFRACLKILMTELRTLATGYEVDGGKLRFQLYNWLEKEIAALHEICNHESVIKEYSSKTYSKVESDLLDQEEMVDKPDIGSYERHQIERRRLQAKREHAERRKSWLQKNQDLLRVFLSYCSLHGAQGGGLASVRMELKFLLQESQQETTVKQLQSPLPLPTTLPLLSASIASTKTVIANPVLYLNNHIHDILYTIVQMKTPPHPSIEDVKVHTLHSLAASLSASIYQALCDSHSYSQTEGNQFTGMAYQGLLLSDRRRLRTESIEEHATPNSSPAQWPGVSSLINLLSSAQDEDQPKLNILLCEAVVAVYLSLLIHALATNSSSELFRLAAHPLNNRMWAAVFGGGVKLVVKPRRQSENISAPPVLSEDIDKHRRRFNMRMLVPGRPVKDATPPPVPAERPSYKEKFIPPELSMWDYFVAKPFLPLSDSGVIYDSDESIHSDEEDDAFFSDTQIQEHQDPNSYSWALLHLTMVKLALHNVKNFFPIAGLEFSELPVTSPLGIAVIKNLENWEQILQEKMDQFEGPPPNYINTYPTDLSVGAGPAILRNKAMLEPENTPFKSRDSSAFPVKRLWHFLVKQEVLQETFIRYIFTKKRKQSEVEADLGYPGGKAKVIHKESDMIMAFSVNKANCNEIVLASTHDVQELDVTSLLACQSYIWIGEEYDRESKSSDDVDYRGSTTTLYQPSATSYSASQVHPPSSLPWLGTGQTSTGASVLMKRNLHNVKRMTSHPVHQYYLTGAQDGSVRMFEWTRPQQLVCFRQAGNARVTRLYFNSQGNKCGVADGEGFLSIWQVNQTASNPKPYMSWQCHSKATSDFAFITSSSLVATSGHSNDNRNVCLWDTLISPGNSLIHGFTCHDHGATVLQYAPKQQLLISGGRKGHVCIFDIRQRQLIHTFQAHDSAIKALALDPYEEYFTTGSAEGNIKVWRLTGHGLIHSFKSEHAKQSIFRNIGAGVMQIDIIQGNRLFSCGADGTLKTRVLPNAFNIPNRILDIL

B1: LZTR1-FLAG (other, human, UniProt Q8N653 1-840, looked up)
chain: MAGPGSTGGQIGAAALAGGARSKVAPSVDFDHSCSDSVEYLTLNFGPFETVHRWRRLPPCDEFVGARRSKHTVVAYKDAIYVFGGDNGKTMLNDLLRFDVKDCSWCRAFTTGTPPAPRYHHSAVVYGSSMFVFGGYTGDIYSNSNLKNKNDLFEYKFATGQWTEWKIEGRLPVARSAHGATVYSDKLWIFAGYDGNARLNDMWTIGLQDRELTCWEEVAQSGEIPPSCCNFPVAVCRDKMFVFSGQSGAKITNNLFQFEFKDKTWTRIPTEHLLRGSPPPPQRRYGHTMVAFDRHLYVFGGAADNTLPNELHCYDVDFQTWEVVQPSSDSEVGGAEVPERACASEEVPTLTYEERVGFKKSRDVFGLDFGTTSAKQPTQPASELPSGRLFHAAAVISDAMYIFGGTVDNNIRSGEMYRFQFSCYPKCTLHEDYGRLWESRQFCDVEFVLGEKEECVQGHVAIVTARSRWLRRKITQARERLAQKLEQEAAPVPREAPGVAAGGARPPLLHVAIREAEARPFEVLMQFLYTDKIKYPRKGHVEDVLLIMDVYKLALSFQLCRLEQLCRQYIEASVDLQNVLVVCESAARLQLSQLKEHCLNFVVKESHFNQVIMMKEFERLSSPLIVEIVRRKQQPPPRTPLDQPVDIGTSLIQDMKAYLEGAGAEFCDITLLLDGHPRPAHKAILAARSSYFEAMFRSFMPEDGQVNISIGEMVPSRQAFESMLRYIYYGEVNMPPEDSLYLFAAPYYYGFYNNRLQAYCKQNLEMNVTVQNVLQILEAADKTQALDMKRHCLHIIVHQFTKVSKLPTLRSLSQQLLLDIIDSLASHISDKQCAELGADI
notes: Expressed in HEK 293T, HeLa or U87 cells; used as cell lysate; also called LZTR1 wild type-FLAG; LZTR1 WT; not shown: FLAG tag at the C-terminus
binds: all assays above
